This note sets out measurements from publication PMC7530659, “Oxepinamide F biosynthesis involves enzymatic D-aminoacyl epimerization, 3H-oxepin formation, and hydroxylation induced double bond migration” (Nature Communications, 2020).

The test system of data set [1] is T1, CC[C@H](C)[C@@H]1NC(=O)[C@@H](Cc2ccccc2)n2c1nc1c(c2=O)C=CC=CO1.
T1 construct: recombinant N-terminally His6-tagged OpaC from cDNA, 457 amino acids, lacking residues 248 to 252 of KIA75456
Briefly: purified protein. The note with it: FAD; NADPH. Type of data set: biochemical, Aspergillus ustus.

Substrate in data set [2]: CC[C@H](C)C1=C2N=C3OC=CC=C[C@]3(O)C(=O)N2[C@H](Cc2ccccc2)C(=O)N1
Briefly: HPLC enzyme assay with purified OpaE, Michaelis-Menten kinetics (KM); D2O labeling by LC-MS. Type of data set: biochemical, Aspergillus ustus.

A word on the Km: it is the substrate concentration at which the rate is half of its maximum.

On to OpaC (Aspergillus ustus; DEL248-252), for which the Km in data set [1] worked out at 430 ± 40 µM.

B1: OpaE (Aspergillus ustus) (protein)
chain: MGPLRVFTDNKVKVMLLNPIGGAGFNDFVVETVLNHKDPSTHVTITSLANRIGGNQTLAYPSIRPLLYGEMIRVCLQARKENYDVLIINCFGDPMVDELQQIAGDDMVILGARQVAVQTASKISSKYAVLLPYDMKSSPDPLHQRVVADTRTAVAHPVVDMAFNDDLTPMDGESLGERLATQGKLAIKENGAEVLVLGCTAMVGCWQGLMRAVGVPVIDPTVAALRAAGKAGRLKRELVGGASTKRSGTFPTEKELKMIAESEPSYPFSGRIEI
notes: recombinant His6-tagged OpaE
B1: in data set [2], the Km stood at 1410 ± 50 µM.
